# In patent US8501696 (dated 2013):
# B1: wild type sgp130Fc (Fc fusion)
# chain: ELLDPCGYISPESPVVQLHSNFTAVCVLKEKCMDYFHVNANYIVWKTNHFTIPKEQYTIINRTASSVTFTDIASLNIQLTCNILTFGQLEQNVYGITIISGLPPEKPKNLSCIVNEGKKMRCEWDGGRETHLETNFTLKSEWATHKFADCKAKRDTPTSCTVDYSTVYFVNIEVWVEAENALGKVTSDHINFDPVYKVKPNPPHNLSVINSEELSSILKLTWTNPSIKSVIILKYNIQYRTKDASTWSQIPPEDTASTRSSFTVQDLKPFTEYVFRIRCMKEDGKGYWSDWSEEASGITYEDRPSKAPSFWYKIDPSHTQGYRTVQLVWKTLPPFEANGKILDYEVTLTRWKSHLQNYTVNATKLTVNLTNDRYLATLTVRNLVGKSDAAVLTIPACDFQATHPVMDLKAFPKDNMLWVEWTTPRESVKKYILEWCVLSDKAPCITDWQQEDGTVHRTYLRGNLAESKCYLITVTPVYADGPGSPESIKAYLKQAPPSKGPTVRTKKVGKNEAVLEWDQLPVDVQNGFIRNYTIFYRTIIGNETAVNVDSSHTEYTLSSLTSDTLYMVRMAAYTDEGGKDGPEFTFTTPKFAQGEIE
# Molecular target: Hyper-IL-6 (designer cytokine consisting of covalently linked IL-6 and sIL-6R) (human, UniProt P08887 20-323; P05231 30-212)
# Sequence (P08887 20-323, chain 1 of 2): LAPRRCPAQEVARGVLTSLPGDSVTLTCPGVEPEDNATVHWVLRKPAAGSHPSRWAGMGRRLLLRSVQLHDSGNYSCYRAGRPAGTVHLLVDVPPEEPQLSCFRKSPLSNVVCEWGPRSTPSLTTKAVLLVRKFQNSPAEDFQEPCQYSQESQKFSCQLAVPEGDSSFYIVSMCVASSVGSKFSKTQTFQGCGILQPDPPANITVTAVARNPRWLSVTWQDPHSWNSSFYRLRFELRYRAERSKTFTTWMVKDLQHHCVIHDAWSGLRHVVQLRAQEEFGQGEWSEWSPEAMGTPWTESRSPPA
# Sequence (P05231 30-212, chain 2 of 2): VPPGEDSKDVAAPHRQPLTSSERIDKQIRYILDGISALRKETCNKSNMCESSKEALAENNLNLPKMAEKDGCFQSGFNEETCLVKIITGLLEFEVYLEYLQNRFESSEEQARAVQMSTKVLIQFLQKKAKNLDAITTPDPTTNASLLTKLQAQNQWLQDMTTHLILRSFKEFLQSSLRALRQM
# Experiment: SPR
binder,measurement,value
B1,Kd,0.499 nM
